Experimental data reported in the nanobody polyreactivity screen of Harvey et al. (2022).

Assay: yeast display, Sf9 membrane polyspecificity reagent, FACS + sequencing; frameworks hold sequencing errors
How it was run: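 After 36–48 hours of galactose induction, yeast (Saccharomyces cerevisiae BJ5465) displaying a synthetic nanobody library were stained at 4 °C for 1 hour with 10% biotinylated, detergent-solubilized Sf9 membrane reagent. Streptavidin microbeads enriched the stained cells before FACS sorting into low and high (top ~1%) gates on anti-HA and streptavidin fluorescence. Each clone's polyreactivity label reflects its gate of origin.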

Sequence | polyreactivity (PSR sort gate)
QVQLVESGGGLVQAGGSLRLSCAASGRTFKYYAMGWYRQAPGKERELVASISNGGNTNYADSVKGRFTISRDNAKNTVYLQMNSLKPEDTAVYYCAAGYVVATRYDYWGQGTQVTVSS | high polyreactivity
QVQLVESGGGLVQAGGSLRLSCAASGNTFVYNDMGWSRQAPGKERELVADIRYSGSTYYADSVMGRFTISRDNAKNTVYLQMNSLKPEDTAVYYCAKAYYVLSWMGYWGQGTPVTVSS | low polyreactivity
QLQLVESGGGLVQAGGSLRLSCAASGLTICRYAMAWYRQAPGKEREFVATISQNGGRTYYADSVKGRFTISRDNAKNTVYLQMNSLKPEDTAVYYCAADDWRWGYDYWGQGTQVTVSS | high polyreactivity
QVQLVESGGGLVQAGGSLRLSCAASGYTFRYYAMGWYRQAPGKERELVARITGRAGSTYYADSVKGRFTISRDNAKNTVYLQMNSLKPEDTAVYYSAASIREGFYWGQGTQVTVSS | high polyreactivity
QVQLVESGGGLVQAGGSLRLSCAASGFIFQEYVMGWYRQAPGKERELVAAISRSGGRTYYADSVKGRFTISRDNAKNTVYLQMNSLKPEDTAVYYCAATYTKSHGVRYYHWGQGTQVTVSS | high polyreactivity
QVQLVESGGGIVQAGGSLRLSCAASGSIFTGYAMGWYRQAPGKERQLVAAISWRGGGTYYADSVKGRFTISRDNAKNTVYLQMNSLKPEDTAVYYCAAVTKFGQYAPGSKGYGYWGQGTQVTVSS | low polyreactivity
QDQLVESGGGLVQSGGSLRLSCAASGFIFPHYAMGWYRPAPGKERELVAAISKSGDSTYYADSVKGRFSISRDNAKNTVYLQMNSLKPEDTAVYYCARRGRSLLWKYDYWRQGTQVTVSS | low polyreactivity
QVQLVESGGGLVQAGGSLRLSCAASGSTFKRNTMGWYRQAPGKERELVAAISRSGGYTYYADSVKGRFTISRDNAKNTVYLQMNSLNPEDTAVYYCNANVSSYVGSRSYGLSPYDYWGQGTQVTVSS | high polyreactivity
QVQLVESGGGLVQAGGSLRLSCAASGSTFGFYTMGWYRPAPGKERELVAAISWSTGRTYYADSVKGRFTISRDNAKNTVYLQMNSLKPEDTAVYYCAARAVDKYRFGGRYDYWGQGTQVTVSS | low polyreactivity
QVQLVESGGGLVQAGGSLRLSCAASGSTFTSYVMGWYRQAPGKERELVAAISSSGTRTYYADSVKGRFTISRDNAKNTVYLQMNSLKPEDTSVYYCAARGGAPYRIFKDDYWGQATQVTVSS | high polyreactivity
QVQLVESGGGLVQAGGSLRLSCAASGSIFGYNVMGWYRQAPGKERELVATISSSGGTNYADSVKGRFTISRDNAKNTVYLQMNSLKPEDTAVYYCNADVLDGGYDYWGQGTQVTVSS | low polyreactivity
QVQLVESGGGLVQAGGSLRLSCAASGSTFYVNDMGWYRQAPGKERELVAAITWGVGDTYYADSVKGRFTISRDNAKNTVYLQMNSLKPEDTAVYYCAADTSYYYAYTQMEYWGQGTQVTVSS | low polyreactivity
QVQLVESGGGLVQAGGSLRLSCAASGSTLYWYAMGWYRQAPGKERELVASISWSGGSTYYADSVKGRFTISRDNAKITVYLQMNSLKPEDTAVYYCDAVRHYHGTWYDYWGEGTQVTVSS | high polyreactivity
QVQLVESGGGLVQAGGSLRLSCAASGFTFAWNAKGWYRQAPGKERELVAAINRSGGSTKYADSVKGRFTISRDNAKNTVYLQMNSLKPEDTAVYFCNKYQLVRTYGSYSYYYWVQGTQVTVSS | high polyreactivity
QVQLVDSRGGLVQAGGSLRLSCSASGSIFPANVMGWYRQAPGKERELVASINSGDDTNYADSVKGRFTISRDNAKNTVYLQMNSLKPEDTAVYYCATGDWYPYGDYIYDYWGQGTQVTVSS | low polyreactivity
QVQLVESGGGLVQAGGSLRLSCAASGLTFYNNAMGWYRQAPGKERELVARISSGGSTYYADSVKGRFTISRDNAKNTVYLQMNSLKPEDTAVYYCAAGRGYWWWYGYDYWGQGTQVTVSS | low polyreactivity
QVQLVESGGGLVQAGGSLRLSCAASGRIFYRNAMGWYRQAPGKERELVAAISYSGGRTYYADSVKGRFTISRDNAKNTVYLQMNSLKPEDTAVFYCAARYAWGYVDPGDYWGQGTQVTVSS | high polyreactivity
QVQLGESGGGLVQAGGSLRLSCAASGRIFAWNAMGWYRQAPGKERELVAAITYNGGSTYYADSVKGRFTISRDNAKNTVYLQMNSLKPEDTAVYYCNKVTRSPAQGYGYWGQGTQVTVSS | high polyreactivity
QVQLVESGGGLVQAGCSLRLSCAASGRTIGYYAMGLYRPAPGKERELVAAISTRGGRTSYADSVKGRFTISRDNAKYTVYFQMNSLKPEDTAVYYCAADGVRVHKDPTGHYYWGQGTQVTVSS | high polyreactivity
QVQLVESGGGLVQAGGSLRLSCAASGSTFGLYAMGWYRQAPGKERELVAAITIRGGSTYYADSVKGRFTISRDNAKNTVYLQMNSLKPEDTAVYYCAADYWYGGFEYWGQGTQVTVSS | low polyreactivity
QVQLEESAGGIVQAGGSLRFSCAASGSTISAYDIGCYRQEPGKEWELVAAITWIGGNTYYADSVKGRFTISRDTAKNTVYLQMNSLKPEDTEFYYCAAEEVPYDRDMDYWGQGTQVTVSS | low polyreactivity
QVHLGESGARIDQAGGSLRLSCAASGRIFKYNAMGLYRQAPGKEREWVAAISSGGSTNYADTEKGRFTISRDNAKNTVYLQMNSLKPEDTAVYYCAADGTRVSSFHYLVWLGYWGQGTQVNVSS | low polyreactivity

Sequence | polyreactivity (PSR sort gate)
QVQLVESGGGLVQAGGSLRLSCAASGRIFPGYAMGWYRQAPGKERELVAAISGSGVRTYYADSVKGRFTISRDNAKNTVYLQMNSLKPEDTAVYYCAADSKIRTKLDYWGQGTQVTVSS | low polyreactivity
QVQLVESGGGLVQAGGSLRISCAASGRTFGYYGMGWSRQAPGKERELVAGITSRGGSTYYADSVKGRFTISRDNAKNTVYLQMNSLKPEDTAVYYCNAQYARKYGFWTAYDYWGQGTQVTVSS | high polyreactivity
QVQLVESGGGLVQAGGSLRLSSAASGLTFINYDMGWYRQAPAKERELVAAISQIGTSTYYADSVKRRFTISRDNAKNTVYLQMNSLKPEDTAVYYCAAEFPTVYIPWSEMDYWGQGTQVTVSS | high polyreactivity
QVQLVESGGGLVQAGGSLRLSCAASGSIFYLYVMGWYRQAPGKERELVAAINWSGSRTYYADSVKGRFTISRDNAKNTVYLQMNSLKPEDTAVYYCNAVRATGQASQEGEYWGQGTQVTVSS | high polyreactivity
QVQLVESGGGLVQAGGSLRLSCAASGSIFVYYAMGWYRQAPGNERELVAAISKTGGRTYYADSVKGRFTISRDNAKNTVYLQMNSLKPEDSAVYYCAARYTIRYKRYDYWGQGTQVTVSS | high polyreactivity
QVQLVESGGGLVQAGGSLRLSCAASGSIFKYYAMGWYRQAPGKERELVAAITGSGGNTYYADSVKGRFTISRDNAKNTVYLQMNSLKPEDTAVYYCAATYWWAYVWAYSHVKSTNDYWGQGTQVTVSS | low polyreactivity
QVQLVESGGGLVQAGGSLRLSCAASGLTFYAYAMGWYRQAPGKERELVAHISWTGTTTYYADSVKGRFTISRDNAKNTVYLQMNSLKPEDTAVYYCAALIYRYAVAPPGYQYWLYYWGQGTLVTVSS | low polyreactivity
QVQLVESGGGLVQAGGSLRLSCAASGSNITTYAMGWYRQAPGKERELVAAITDTSSTNYADSVKGRFTISRDNAKNTVYLQMNSLKPEVTAVYYCAVDLGYEYDWGQGTQVTVSS | low polyreactivity
QVQLVDSGGGLVQAGGTLRLSCASSGSTFYYYAMGWYRQAPGKERELVAGITSGGSTNYADSVKGRFTISRDNAKNTVKLLMNSLKPEDTADYYCNARYRKYRYRYDYWGQGTQVSVSS | low polyreactivity
QVQLVESGGGLVQAGGSLRLSCADSGRTLSVYAMGWYRQAPGKESELVAAITWRGGSTYYADSVKGRFTISRDNAKNTVYLQMNSLKPEDTAVYYCAAEDYTYNGGGFEYWGQGTQVTVAS | low polyreactivity
QVQLVESGGGLVQAGGSLRLSCAASGFTFRRYVMGWYRQAPGKERELVAAISQSGGSTYYADSVKGRFTISRDNAKNTVYLQMNSLKPEDTAVYYCAAAKVPYGWEQSDYWGQGTQVTVSS | high polyreactivity
QVQLVESGGGLVQAGGSLRLSCAASGFIFYNAMGWYRQAPGKESELVAAITGSGGRTYYADSVKGRFTISRDNAKNTVYLQMNSLKPEDTAVYYCAADGYVRTVTSGWALRMGYWGQGTQVTVSS | high polyreactivity
QVQLVESGGGLVQAGGSLRLSCAASGRTFKKYALGWYRQAPGKEREVVAAITSRVRSTSYADSVKGRFTISRDNAKNTVYLQMNSLIPEDTAVYYCAARYSVGNGYGYWGQVTQVTVSS | high polyreactivity
QVQLVESGGCLVQARGSLRLSCASSGSTFGRNAMGWYRQAPGKERELVASISRRGGSTYYADSVKGRFTISRDNAKNTVYLQMNSLKPEDTAVYYCNRVQFSPVYRFREYDYWGQGTQVTVSS | high polyreactivity
QVQLVESGGGLVQAGGSLRLSCAASGSIFLYNTMGWYRQAPGKERELVAAITSGGNTNYADSVKGRFTISRDNAKNTVYLQMHSLKPEDTAVYYCNVDLKAWLPDGGSVDYWGQGTQVTVSS | low polyreactivity
QVHLVESGGGLVQAGGSLRISCAASGFIFEPYAMGWYRQAPGKERELVAAISSTGGSTYADSVKGRFTISRDNAKNTVYIQMNSLKPEDTEGYYCAAKVRISRYTYGYWGQGNQVTVSS | high polyreactivity
QVQLVESGGGLVQAGGSLRLICAASGIIFPFYVMGWYRQAPGKERELVAAITWSGDGTYYADSVKGRFTISRDNAKNTVYLQMNSLKPEDTAVYYCAAQWYYGGVKYYYWGQGTIVTVSS | low polyreactivity
QVQLVESGGGLVQAGGSLRLSCAASGYTFVVYAMGWYRPAPGKERELVAAINKSGGSTYYADSVKGRFTISRDNAKNTVYLQMNSLKPEDTAVYYCAAVVWILYSSSRGDYWGQGTQVTVSS | low polyreactivity
QVQLVESGGGLVQAGGSLRLSCAASGRIFNLYAMGWYRPAPGKERELVAAISWSGGSTYYADSVKGRFTITRDNAKNTVYLQMNSLKPEDTAVYYCKVVSTYKHTYDFDYWGQGTQVTLSS | high polyreactivity
QVQLQERGGGLVQVGGSKRLSCAASGNIFYNYSMGWYRHAQGKEREFDDTINHGTSINYADSVKGRFTISRDKATNTGYLEMNSLKPEDTAVFYCAADRSWTDNLFYWGQGSQVTVSS | low polyreactivity
QVQLVESRGGLVQAGGSLRLSCSASGITFNHYAMGWYRQAPGKERQLVAAITGSGGSTYYADSVKGRFTISRDNGKNTVYLQMNSLKPEDTAVYYCKTSPKLTYAVLYDYWGQGTQVTVSS | high polyreactivity
